In patent US20250215100A1 (HARBOUR BIOMED SHANGHAI, published 2025):
Where two headings read alike, the source gives them in different places.

Experiments:
human CD40 on cells [1] = biological target: T1, human CD40 on cells (human, UniProt P25942 21-277); test: FACS, Raji cells
T1 construct: whole, on cells; The cell line used is named in each row's assay; also called hCD40; TNFRSF5
From the text: (§1) Flow cytometry (FACS) was used to detect the binding ability of the CD40 antibody to cells, such as, CHO-K1/hCD40 highly expressing human CD40 (constructed by Beijing Kyinno Biotechnology), CHO-K1/cyCD40 highly expressing cynomolgus monkey CD40 (constructed by Beijing Kyinno Biotechnology) and lymphoma cell highly expressing human CD40, Raji (ATCC, #CCL-86). Specifically, the cells were digested and resuspended with complete medium (F-12K for CHO-K1 cells; and RPMI-1640 for Raji cells); and the cells were adjusted to a cell density of 1×10⁶ cells/mL. The cells were seeded in a 96-well V-bottom plate (Corning, #3894) at 100 μL/well, and the antigen binding protein to be tested at 2x final concentration was then added at 100 μL/well and mixed evenly, with the highest final concentration of the antigen binding protein of 300 nM, a total of 8 concentrations, and 5-fold concentration gradient dilution. hIgG (Crownbio, #C0002) was used as a negative control, and the positive control molecule was the molecule in Table 1-5. The cells were incubated at 4° C. for 1 hours in the dark. After the incubation, the cells were rinsed twice by adding pre-chilled PBS at 100 μL/well, and centrifuged at 500 g at 4° C. for 5 minutes, and the supernatant was discarded. Then, a fluorescent secondary antibody (goat anti-human IgG (H+L) secondary antibody, Alexa Fluor® 488 conjugate, Invitrogen, #A11013, 1:1000 dilution) was added at 100 µL/well, and the cells were incubated at 4° C. for 30 minutes in the dark. The cells were washed twice with pre-chilled PBS at 200 μL/well, and centrifuged at 500 g at 4° C. for 5 minutes, and the supernatant was discarded. Finally, the cells were resuspended in pre-chilled PBS at 200 μL/well. The fluorescence signal values were read using a BD FACS CANTOII flow cytometer or ACEA NovoCyte flow cytometer, and the data were processed and analyzed using FlowJo v10 software (FlowJo, LLC).
(§2) Data processing and graphical analysis were performed using GraphPad Prism 8 software. The binding curve of the antibody to the target cell and parameters, such as EC50 value were obtained by four-parameter nonlinear fitting.

human CD40 on cells [2] = biological target: T1, human CD40 on cells; test: cell-based or functional assay
human CD40 on cells [3] = biological target: T1, human CD40 on cells; test: FACS, CHO-K1/hCD40 cells
From the text: as §1, §2

[4] = biological target: T2, cynomolgus monkey CD40 on cells (cynomolgus monkey, UniProt G7PG38 21-278); test: FACS, CHO-K1/cyCD40 cells
T2 construct: also called cyCD40; CHO-K1/cyCD40
T2 sequence (G7PG38 entry or part of it limits assumed): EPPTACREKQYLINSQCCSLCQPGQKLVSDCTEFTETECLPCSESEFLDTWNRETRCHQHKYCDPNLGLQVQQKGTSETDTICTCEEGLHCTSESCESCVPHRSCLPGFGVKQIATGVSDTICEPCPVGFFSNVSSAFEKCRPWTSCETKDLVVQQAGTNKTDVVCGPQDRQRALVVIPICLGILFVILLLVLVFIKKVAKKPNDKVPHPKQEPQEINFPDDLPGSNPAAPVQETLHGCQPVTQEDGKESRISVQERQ
From the text: as §1, §2

human CD40 on cells [5] = biological target: T1, human CD40 on cells; test: FACS, inhibition of human CD40L-his binding to CHO-K1/hCD40 cells
Procedure: To detect the effect of CD40 antibodies on the binding of CD40 to CD40L, CHO-K1/hCD40 cells were plated at 2×10⁵/well or 100 μL/well into a 96-well plate (Corning, #3799) and centrifuged, and the supernatant was taken and the dilution solution of the antigen binding protein to be tested was added at 50 μL/well with an initial concentration of 500 nM, 5-fold concentration dilution and a total of 8 concentrations. 20 μg/mL of human CD40L-his protein (Sino biological, #10239-H08E) was added at 50 μL/well, the cells were incubated at 4° C. for 1 hour and then washed 3 times with FACS buffer (1×PBS with 2% FBS). 1:400 diluted anti-histidine tag secondary antibody (GenScript, #A01800) was added, and the cells were incubated at 4° C. for 1 hour, then washed 2 times with FACS buffer, and resuspended in pre-chilled PBS. The fluorescence signal values were read using a BD FACS CANTOII flow cytometer or ACEA NovoCyte flow cytometer, and the data were processed and analyzed using FlowJo v10 software (FlowJo, LLC).
Data processing and graphical analysis were performed using GraphPad Prism 8 software. The curve of the antibody concentration-dependent inhibition rate and parameters, such as IC50 value were obtained by four-parameter nonlinear fitting.

human CD40 protein = biological target: T3, human CD40 protein (human, UniProt P25942 21-193, limits assumed); test: BLI (Octet Red 96e), antibody captured on AHC sensor, human CD40 protein in solution, 1:1 global fit
T3 construct: the construct is not described
T3 sequence (P25942 21-193 limits assumed): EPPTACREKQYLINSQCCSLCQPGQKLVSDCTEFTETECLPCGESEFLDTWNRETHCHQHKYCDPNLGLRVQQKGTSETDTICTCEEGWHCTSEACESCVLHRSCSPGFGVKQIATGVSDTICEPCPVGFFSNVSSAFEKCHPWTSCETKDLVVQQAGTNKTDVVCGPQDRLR
Procedure: To detect the affinity of CD40 antibodies for antigens such as human CD40 protein, the binding kinetics between antigen and antibody was analyzed using an Octet Red 96e (Fortebio) molecular interaction analyzer by biolayer interferometry (BLI) technique.
For determining the affinity of antibodies for antigens, the rotary speed of the sensor was set at 1000 rpm. […] The AHC sensors were finally regenerated by immersing in a 10 mM glycine-hydrochloric acid solution with pH 1.5 to elute the protein bound to the sensors.
For data analysis using Octet Data Analysis software (Fortebio, version 11.0), 0 nM well was used as the reference well, reference subtraction was performed, “1:1 Global fitting” method was selected for data fitting, the kinetic parameters of the binding of the antigen to the CD40 antibodies were calculated, and the kon (1/Ms) value, kdis (1/s) value and KD (M) value were obtained.

human CD40 on cells [6] = biological target: T1, human CD40 on cells; test: cell-based or functional assay; remark: listed apart in the source

T1 sequence (P25942 21-277): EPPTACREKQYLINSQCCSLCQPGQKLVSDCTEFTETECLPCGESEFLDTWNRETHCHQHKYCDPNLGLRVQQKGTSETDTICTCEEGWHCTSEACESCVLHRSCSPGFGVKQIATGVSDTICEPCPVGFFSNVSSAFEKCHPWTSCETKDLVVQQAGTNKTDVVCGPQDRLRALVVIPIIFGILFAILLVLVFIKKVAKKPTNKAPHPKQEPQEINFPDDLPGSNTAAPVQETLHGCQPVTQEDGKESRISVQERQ

Binder | EC50 (human CD40 on cells [1]) [nM] | Maximum MFI (human CD40 on cells [1]) [MFI] | EC50 (nM), crosslinked (CHO-K1/hCD32B), HEK293-hCD40-NFkB reporter (human CD40 on cells [2]) [nM] | EC50 (nM), uncrosslinked, HEK293-hCD40-NFkB reporter (human CD40 on cells [2]) [nM] | Maximum RLU, crosslinked (CHO-K1/hCD32B), HEK293-hCD40-NFkB reporter (human CD40 on cells [2]) [RLU] | Maximum RLU, uncrosslinked, HEK293-hCD40-NFkB reporter (human CD40 on cells [2]) [RLU] | RLU fold (crosslinked/uncrosslinked) (human CD40 on cells [2]) [fold] | EC50 (human CD40 on cells [3]) [nM] | Maximum MFI (human CD40 on cells [3]) [MFI] | EC50 [4] [nM] | Maximum MFI [4] [MFI] | IC50 (human CD40 on cells [5]) [nM] | Maximum inhibition rate (%) (human CD40 on cells [5]) | Kd (human CD40 protein) [nM] | koff (human CD40 protein) [s⁻¹] | kon (human CD40 protein) [M⁻¹ s⁻¹] | EC50 (nM), crosslinked, HEK293-hCD40-NFkB reporter (human CD40 on cells [6]) [nM] | EC50 (nM), uncrosslinked, HEK293-hCD40-NFkB reporter (human CD40 on cells [6]) [nM] | Fold (EC50 in the absence of crosslinking/EC50 in the presence of crosslinking) (human CD40 on cells [6]) [fold] | Maximum fold (fold), crosslinked (human CD40 on cells [6]) [fold] | further results
PR001028 (Selicrelumab) (antibody, human IgG2, kappa, V domains shown, CD40 positive control antibody) VH: not shown VL: DIQMTQSPSSVSASVGDRVTITCRASQGIYSWLAWYQQKPGKAPNLLIYTASTLQSGVPSRFSGSGSGTDFTLTISSLQPEDFATYYCQQANIFPLTFGGGTKVEIKR | 0.484 | 2450 | 0.0413 | 0.163 | 17000 | 13400 | 1.28 | 10.3 | 85000 | 5.97 | 106000 |  |  | 4.5 | 0.00048 | 107000 |  |  |  |  | 
PR006511 (antibody, human IgG1, kappa, V domains shown, PR003379 variant L:S93N; human IgG1 L234A, L235A, G237A) VH: QVQLVQSGAEVKKPGASVKVSCKASGYTFAGYYMYWVRQAPGQGLEWMGWINPDSGAPTYAQKFQGRVTMTRDTSISTAYMELSRLRSDDTAVYYCAREKIYYGSGNYYPSFDYWGQGTLVTVSS VL: DIQLTQSPSFLSASVGDRVTITCRASQGISSYLAWYQQKPGKAPKLLIYAASTLQSGVPSRFSGSGSGTEFTLTISSLQPEDFATYYCQQLNNYPWTFGQGTKVEIKR | 0.386 | 11800 |  |  |  |  |  | 4.99 | 79400 | 3.68 | 40300 |  |  |  |  |  | 0.16 | 0.815 | 5.1 | 5.19 | Maximum fold (fold), uncrosslinked (human CD40 on cells [6]): 4.5 fold
PR006515 (antibody, human IgG1, kappa, V domains shown, PR003379 variant L:S93M; human IgG1 L234A, L235A, G237A) VH: QVQLVQSGAEVKKPGASVKVSCKASGYTFAGYYMYWVRQAPGQGLEWMGWINPDSGAPTYAQKFQGRVTMTRDTSISTAYMELSRLRSDDTAVYYCAREKIYYGSGNYYPSFDYWGQGTLVTVSS VL: DIQLTQSPSFLSASVGDRVTITCRASQGISSYLAWYQQKPGKAPKLLIYAASTLQSGVPSRFSGSGSGTEFTLTISSLQPEDFATYYCQQLNMYPWTFGQGTKVEIKR | 0.322 | 8900 |  |  |  |  |  | 4.59 | 86300 | 3.75 | 50600 |  |  |  |  |  | 0.0669 | 0.268 | 4.01 | 4.91 | Maximum fold (fold), uncrosslinked (human CD40 on cells [6]): 4.54 fold
PR001304 (APX005M) (antibody, human IgG1, kappa, CD40 positive control antibody) heavy: not shown light: DIQMTQSPSSLSASVGDRVTIKCQASQSISSRLAWYQQKPGKPPKLLIYRASTLASGVPSRFSGSGSGTDFTLTISSLQPEDVATYYCQCTGYGISWPIGGGTKVEIKRTVAAPSVFIFPPSDEQLKSGTASVVCLLNNFYPREAKVQWKVDNALQSGNSQESVTEQDSKDSTYSLSSTLTLSKADYEKHKVYACEVTHQGLSSPVTKSFNRGEC |  |  | 0.042 | 0.355 | 23200 | 11900 | 1.95 |  |  |  |  | 10 | 26 | 7.14 | 0.00264 | 369000 |  |  |  |  | 

Continued, in another order:

EC50 (human CD40 on cells [1]) [nM] | Maximum MFI (human CD40 on cells [1]) [MFI] | EC50 (nM), crosslinked (CHO-K1/hCD32B), HEK293-hCD40-NFkB reporter (human CD40 on cells [2]) [nM] | EC50 (nM), uncrosslinked, HEK293-hCD40-NFkB reporter (human CD40 on cells [2]) [nM] | Maximum RLU, crosslinked (CHO-K1/hCD32B), HEK293-hCD40-NFkB reporter (human CD40 on cells [2]) [RLU] | Maximum RLU, uncrosslinked, HEK293-hCD40-NFkB reporter (human CD40 on cells [2]) [RLU] | RLU fold (crosslinked/uncrosslinked) (human CD40 on cells [2]) [fold] | EC50 (human CD40 on cells [3]) [nM] | Maximum MFI (human CD40 on cells [3]) [MFI] | EC50 [4] [nM] | Maximum MFI [4] [MFI] | IC50 (human CD40 on cells [5]) [nM] | Maximum inhibition rate (%) (human CD40 on cells [5]) | Kd (human CD40 protein) [nM] | koff (human CD40 protein) [s⁻¹] | kon (human CD40 protein) [M⁻¹ s⁻¹] | EC50 (nM), crosslinked, HEK293-hCD40-NFkB reporter (human CD40 on cells [6]) [nM] | EC50 (nM), uncrosslinked, HEK293-hCD40-NFkB reporter (human CD40 on cells [6]) [nM] | Fold (EC50 in the absence of crosslinking/EC50 in the presence of crosslinking) (human CD40 on cells [6]) [fold] | Maximum fold (fold), crosslinked (human CD40 on cells [6]) [fold] | Binder | further results
0.028 | 614 | 0.0506 | 0.0371 | 22600 | 20000 | 1.13 | 12.2 | 29200 | 5.54 | 39700 | 4.4 | 24 | 0.525 | 0.00057 | 1.09e+06 |  |  |  |  | PR001306 (CDX-1140) (antibody, human IgG2, kappa, V domains shown, CD40 positive control antibody) VH: QVQLVESGGGVVQPGKSLRLSCAASGFTFSSNGIHWVRQAPGKGLEWVAVIWSDGSNKFYADSVKGRFTISRDNSKNTLYLQMNSLRAEDTAVYYCARASGSGSYYNFFDYWGQGTLVTVSS VL: EIVMTQSPATLSVSPGERATLSCRASQSVRSNLAWYQQKPGQAPRLLIYGASTRATGIPARFSGSGSGTEFTLTINSLQSEDFAVYYCQQHNKWITFGQGTRLEIKR | 
0.0699 | 3700 | 0.178 | 0.369 | 19700 | 8250 | 2.38 | 6.34 | 81600 | 3.88 | 117000 | 17 | 41.9 | 0.138 | 0.000144 | 1.04e+06 |  |  |  |  | PR003379 (antibody, human IgG2, kappa, Fully human recombinant IgG2, kappa light chain; from Harbour H2L2 mice; also called 18C4A12-1B1 (clone No.)) heavy: QVQLVQSGAEVKKPGASVKVSCKASGYTFAGYYMYWVRQAPGQGLEWMGWINPDSGAPTYAQKFQGRVTMTRDTSISTAYMELSRLRSDDTAVYYCAREKIYYGSGNYYPSFDYWGQGTLVTVSSASTKGPSVFPLAPCSRSTSESTAALGCLVKDYFPEPVTVSWNSGALTSGVHTFPAVLQSSGLYSLSSVVTVPSSNFGTQTYTCNVDHKPSNTKVDKTVERKCCVECPPCPAPPVAGPSVFLFPPKPKDTLMISRTPEVTCVVVDVSHEDPEVQFNWYVDGVEVHNAKTKPREEQFNSTFRVVSVLTVVHQDWLNGKEYKCKVSNKGLPAPIEKTISKTKGQPREPQVYTLPPSREEMTKNQVSLTCLVKGFYPSDIAVEWESNGQPENNYKTTPPMLDSDGSFFLYSKLTVDKSRWQQGNVFSCSVMHEALHNHYTQKSLSLSPGK light: DIQLTQSPSFLSASVGDRVTITCRASQGISSYLAWYQQKPGKAPKLLIYAASTLQSGVPSRFSGSGSGTEFTLTISSLQPEDFATYYCQQLNSYPWTFGQGTKVEIKRTVAAPSVFIFPPSDEQLKSGTASVVCLLNNFYPREAKVQWKVDNALQSGNSQESVTEQDSKDSTYSLSSTLTLSKADYEKHKVYACEVTHQGLSSPVTKSFNRGEC | 
